Measured values reported in the Human Domainome abundance scans (Beltran et al. 2025).

B1: GA-binding protein alpha chain, residues 172 to 250; numbered along this chain, Q06546 (parent)
chain: GYRKEQERLGIPYDPIQWSTDQVLHWVVWVMKEFSMTDIDLTTLNISGRELCSLNQEDFFQRVPRGEILWSHLELLRKY

Variants of: B1
Test: abundance fitness (aPCA) (normalised: wild type 0, dead -1); higher = more abundant; growth selection in yeast, the domain comes from the species named
Details: Homo sapiens

Abundance fitness, by site and new letter:
L73: P -0.658 | K -0.422 | Q -0.713 | T -0.97 | V -0.376 | E -0.758 | N -0.979 | W -0.173 | M -0.347 | C -0.979 | A -0.736 | Y -0.962 | I -0.542 | G -0.937
L69: G -1.04 | V -0.393 | P -1.06 | A -0.311 | R -0.977 | Y -0.265 | M -0.124 | H -0.259 | I -0.499 | K -1 | C -0.57 | E -0.934 | S -0.882 | D -0.758 | W -0.432 | F -0.027 | N -0.974
I68: Q -0.077 | N -0.194 | E -0.044 | S -0.076 | P 0.023 | Y -0.037 | G -0.087 | H -0.095 | T -0.065 | F -0.053 | W -0.115 | V -0.021 | A 0.017 | M -0.091 | L -0.037 | C -0.055
L75: T 0.024 | G -0.132 | D -0.022 | S 0.046 | Q -0.08 | A -0.02 | M -0.042 | I 0.107 | R -0.012 | F -0.136 | K -0.122 | Y 0.01 | E 0.024 | V -0.193 | W -0.104 | H 0.031
G66: T -0.735 | H -0.608 | D -0.889 | C -0.298 | M -0.967 | L -0.795 | V -0.835 | R -0.562 | K -0.728 | I -0.772 | A -0.025 | S -0.199 | Q -0.773 | P -0.019
Q61: R -0.011 | P -0.777 | I -0.178 | Y -0.203 | E -0.041 | G -0.029 | C -0.091 | L -0.009 | W -0.298 | T 0.014 | A -0.014 | S 0.004 | M -0.022 | V -0.01 | K -0.016 | D -0.155
R77: A -0.547
E67: R -0.101 | V -0.118 | H 0.004 | P -0.239 | S -0.057 | A -0.029 | K 0.064 | Q -0.121 | F -0.249 | M -0.147 | W -0.153 | I -0.189 | D -0.133 | G -0.027 | C -0.19 | N -0.077 | L -0.249 | T -0.038
W70: H -0.494 | V -0.92 | S -0.913 | A -0.748 | K -0.872 | C -0.793 | R -0.526 | F -0.181 | M -0.557 | N -0.766 | Q -0.875 | G -0.843 | T -1.05 | E -0.801 | Y -0.058
H72: M -0.322 | R -0.295 | Y -0.46 | S -0.143 | E 0.009 | F -0.888 | P -1 | K -0.282 | V -0.554 | W -1.02 | Q 0.019 | L -0.751 | T -0.38 | I -0.338 | D -0.214 | A -0.244
P64: G -0.158 | F -0.611 | M -0.952 | Y -0.744 | A -0.295 | E -0.23 | W -0.67 | T -0.333 | D -0.738 | S -0.219 | N -0.177 | I -0.554 | Q -0.266 | K -0.159 | C -0.288 | V -0.406
Q56: W -0.351 | Y 0.025 | V -0.184 | T -0.132 | R -0.008
S71: G -0.01 | Y -0.027 | H -0.029 | R -0.034 | V -0.131 | F -0.102 | D 0.027 | P -0.102 | C -0.167 | Q 0.01 | M -0.162 | W -0.042 | A -0.046 | K -0.102 | I -0.157 | T 0.021 | L -0.156 | E -0.021 | N -0.115
F59: P -1.02 | S -0.626 | R -0.552 | E -0.954 | T -1.02 | I -0.507 | W -0.263 | V -0.803 | L -0.424 | N -0.74 | A -0.813 | Y -0.853 | C -0.972 | K -0.815 | H -0.931 | G -0.888
E74: W -0.336 | L -0.109 | I -0.302 | Y -0.287 | K -0.106 | D -0.023 | N -0.226 | F -0.322 | C -0.138 | Q -0.075 | A -0.061 | T -0.161 | S -0.051 | G -0.066 | P -0.904 | V -0.213
R65: A -0.003 | L -0.141 | F -0.177 | G 0.007 | E 0.033 | M -0.127 | V -0.157 | P -0.455 | N -0.07 | C -0.004 | H -0.111 | D 0.084 | Y -0.033 | K -0.013
R62: V -0.039 | Q -0.106 | H -0.213 | F -0.192 | E -0.197 | G -0.426 | S -0.156 | P -1.06 | T -0.194 | Y -0.133 | L 0.008 | C -0.143 | A -0.132 | W -0.314 | K -0.014 | M 0.07 | D -0.797
D58: Q -0.03 | H -0.149 | R -0.092 | M -0.004 | E -0.095 | T -0.053 | W -0.19 | K -0.129 | C -0.177 | A -0.041 | G -0.071 | N -0.188 | Y -0.165 | I -0.022 | S 0.003 | V -0.091 | P -0.943 | L -0.087
F60: C -0.088 | N -0.183 | A -0.03 | Q -0.053 | R 0.003 | V 0.049 | I 0.039 | W -0.211 | P -0.527 | G -0.101 | S 0 | L 0.033 | M 0.121 | Y -0.06 | K -0.048 | E -0.074 | T -0.044 | H -0.118
L76: W -0.621 | P -0.727 | S -0.676 | E -0.521 | C -0.119 | G -0.95 | A -0.534 | H -0.317 | R -0.677 | F -0.354 | Q -0.416 | I -0.236 | T -0.29 | K -0.876 | M -0.093 | V -0.182
E57: R -0.082 | K -0.122 | S -0.051 | I -0.153 | M -0.139 | N -0.192 | Y 0.009 | P -0.098 | D -0.063 | Q -0.046 | L -0.076 | T -0.068 | H -0.023 | G -0.045 | V -0.081 | A 0.011 | W -0.135 | C -0.058
V63: H -0.886 | D -0.667 | Q -0.235 | W -0.042 | I -0.077 | L -0.073 | A -0.075 | G -0.218 | E -0.563 | Y -0.221 | M -0.113 | R -1.06 | F 0.018 | P -0.667 | K -0.864 | N -0.384 | C -0.012 | T -0.172
